Test results reported in patent EP1720907B1 (MorphoSys AG, dated 2015).
“And” between values parts separate entries of the source, which are not always exact repeats. Identical values can stand only once.

T1: human CD38 (human, UniProt P28907 1-300)
T1 sequence: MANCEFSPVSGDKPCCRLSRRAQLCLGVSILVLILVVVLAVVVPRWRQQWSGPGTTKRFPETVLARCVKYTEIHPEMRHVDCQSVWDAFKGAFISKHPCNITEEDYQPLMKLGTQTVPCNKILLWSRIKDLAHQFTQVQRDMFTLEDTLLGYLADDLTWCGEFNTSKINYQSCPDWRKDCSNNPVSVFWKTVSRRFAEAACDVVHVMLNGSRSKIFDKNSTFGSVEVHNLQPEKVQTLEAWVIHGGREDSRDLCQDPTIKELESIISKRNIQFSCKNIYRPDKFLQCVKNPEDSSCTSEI

B1: MOR03077 human IgG1 (antibody, V domains shown)
VH: QVQLVQSGAEVKKPGASVKVSCKASGYTFTSYSINWVRQAPGQGLEWMGYIDPNRGNTNYAQKFQGRVTMTRDTSISTAYMELSSLRSEDTAVYYCAREYIYFIHGMLDFWGQGTLVTVSS
VL: DIVMTQSPLSLPVTPGEPASISCRSSQSLLFIDGNNYLNWYLQKPGQSPQLLIYLGSNRASGVPDRFSGSGSGTDFTLKISRVEAEDVGVYYCQQYSSKSATFGQGTKVEIKR
B2: MOR03080 human IgG1 (antibody, V domains shown)
VH: QVQLVESGGGLVQPGGSLRLSCAASGFTFSSYGMHWVRQAPGKGLEWVSNIYSDGSNTFYADSVKGRFTISRDNSKNTLYLQMNSLRAEDTAVYYCARNMYRWPFHYFFDYWGQGTLVTVSS
VL: DIELTQPPSVSVAPGQTARISCSGDNIGNKYVSWYQQKPGQAPVVVIYGDNNRPSGIPERFSGSNSGNTATLTISGTQAEDEADYYCSSYDSSYFVFGGGTKLTVLG
B3: MOR03079 human IgG1 (antibody, V domains shown)
VH: QVQLVESGGGLVQPGGSLRLSCAASGFTFSNYGMHWVRQAPGKGLEWVSNIRSDGSWTYYADSVKGRFTISRDNSKNTLYLQMNSLRAEDTAVYYCARRYWSKSHASVTDYWGQGTLVTVSS
VL: DIQMTQSPSSLSASVGDRVTITCRASQDISAFLNWYQQKPGKAPKLLIYKVSNLQSGVPSRFSGSGSGTDFTLTISSLQPEDFATYYCQQAYSGSITFGQGTKVEIKR
B4: MOR03100 human IgG1 (antibody, V domains shown)
VH: QVQLVESGGGLVQPGGSLRLSCAASGFTFSSNGMSWVRQAPGKGLEWVSNISYLSSSTYYADSVKGRFTISRDNSKNTLYLQMNSLRAEDTAVYYCARFYGYFNYADVWGQGTLVTVSS
VL: DIELTQPPSVSVAPGQTARISCSGDNIGHYYASWYQQKPGQAPVLVIYRDNDRPSGIPERFSGSNSGNTATLTISGTQAEDEADYYCQSYDYLHDFVFGGGTKLTVLG

Molecular target: T1, human CD38
Test: cell-based or functional assay

| ADCC EC50 [nM], LP-1 [nM] | ADCC EC50 [nM], RPMI8226 [nM] | CDC EC50 [nM], CHO-transfectants | Molecule |
| --- | --- | --- | --- |
| 5.23 | 4.1 | – | Chimeric OKT10 (antibody) |
| 0.6 | 0.08 | 0.8 nM and 0.94 nM | B1 |
| 0.17 | 0.05 | 3.2 nM and 2.93 nM | B2 |
| 0.09 | 0.04 | – | B3 |
| 1 | 0.28 | 10.9 nM and 13.6 nM | B4 |
